{"source": "the MegaScale stability set (Tsuboyama et al. 2023)", "parents": {"B1": {"name": "5KPH (parent)", "chain": "EEKRQVKQVAKEKLLEQSPNSKVQVRRVQKQGNTIRVELELRTNGKKENYTVEVERQGNTWTVKRITRT"}}, "data": [{"variants_of": "B1", "experiment": "folding stability dG (cDNA display proteolysis); higher = more stable", "conditions": "PBS, room temperature", "units": {"folding stability dG": "kcal/mol"}, "values": [{"variant": "EEKRQVKQVAKEKLLEQSPNSDVQVRRVQKQGNTIRVELELRTNGKKENYTVEVERQGNTWTVKRITRT", "note": "[K22D]", "folding stability dG": 3.8}, {"variant": "EEKRQVKQVAKEKLLEQSPNSKVQVRRVQKQPNTIRVELELRTNGKKENYTVEVERQGNTWTVKRITRT", "note": "[G32P]", "folding stability dG": 2.45}, {"variant": "EEKRQVKQVAKTKLLEQSPNSKVQVRRVQKQGNTIRVELELRTNGKKENYTVEVERQGNTWTVKRITRT", "note": "[E12T]", "folding stability dG": 3.6}, {"variant": "EEKRQVKQVAKEKLLEQSPNSKVQVRRWQKQGNTIRVELELRTNGKKENYTVEVERQGNTWTVKRITRT", "note": "[V28W]", "folding stability dG": 3.85}, {"variant": "EEKRQVKQVAKEKLLEQSPNSKVQVRRVQKQGNTIRVELELRTNGKKENYTVEVEEQGNTWTVKRITRT", "note": "[R56E]", "folding stability dG": 2.88}, {"variant": "EEKRQVKQVRKEKLLEQSPNSKVQVRRVQKQGNTIRVELELRTNGKKENYTVEVERQGNTWTVKRITRT", "note": "[A10R]", "folding stability dG": 2.02}, {"variant": "EEKRQVKQVSKEKLLEQSPNSKVQVRRVQKQGNTIRVELELRTNGKKENYTVEVERQGNTWTVKRITRT", "note": "[A10S]", "folding stability dG": 2.92}, {"variant": "EEKRQVKQVAKEKLLEQSPNSKVQVRRVQKQGNTIRVELELRTNGKKENYTVEVERQGNTWKVKRITRT", "note": "[T62K]", "folding stability dG": 3.96}, {"variant": "EEKRQVKQVAKEKLLEQSGNSKVQVRRVQKQGNTIRVELELRTNGKKENYTVEVERQGNTWTVKRITRT", "note": "[P19G]", "folding stability dG": 2.7}, {"variant": "EEKRQVKQVAKEKLLEQSPNSKVQVRRVQKQGNTIRVELELRTNGKKENWTVEVERQGNTWTVKRITRT", "note": "[Y50W]", "folding stability dG": 4.12}, {"variant": "EEKRQVKKVAKEKLLEQSPNSKVQVRRVQKQGNTIRVELELRTNGKKENYTVEVERQGNTWTVKRITRT", "note": "[Q8K]", "folding stability dG": 4.16}, {"variant": "EEKRQVKQVAKEKLLEQSPNSKVQVRRVQKQGNTIRVELELRTNGKKVNYTVEVERQGNTWTVKRITRT", "note": "[E48V]", "folding stability dG": 3.63}, {"variant": "EEKRQVKQVAKEKLLEQSPNSKVQVRRVQKQGNTIRVELELRTNSKKENYTVEVERQGNTWTVKRITRT", "note": "[G45S]", "folding stability dG": 3.75}, {"variant": "EEKRQVKQVAKEKLLEQSPNSKVQVRRVQKQGNQIRVELELRTNGKKENYTVEVERQGNTWTVKRITRT", "note": "[T34Q]", "folding stability dG": 3.38}, {"variant": "EEKRQVKQVAKEKELEQSPNSKVQVRRVQKQGNTIRVELELRTNGKKENYTVEVERQGNTWTVKRITRT", "note": "[L14E]", "folding stability dG": 1.7}, {"variant": "EEKRQVKQVAKEKLLEQSPNSKVQVRRVQMQGNTIRVELELRTNGKKENYTVEVERQGNTWTVKRITRT", "note": "[K30M]", "folding stability dG": 4.28}, {"variant": "EEKRQVKQVAKEKLLEQSPNSKVQVRRVQYQGNTIRVELELRTNGKKENYTVEVERQGNTWTVKRITRT", "note": "[K30Y]", "folding stability dG": 4.7}, {"variant": "EEKRQVKQVAKEKLLEQSPNEKVQVRRVQKQGNTIRVELELRTNGKKENYTVEVERQGNTWTVKRITRT", "note": "[S21E]", "folding stability dG": 1.96}, {"variant": "EEKRQVKQVAKEKLLEQSPNVKVQVRRVQKQGNTIRVELELRTNGKKENYTVEVERQGNTWTVKRITRT", "note": "[S21V]", "folding stability dG": 3.17}, {"variant": "EEKRQVKQVAKEKLLEQSPNSKVQVRRVQKQGNTGRVELELRTNGKKENYTVEVERQGNTWTVKRITRT", "note": "[I35G]", "folding stability dG": 2.57}, {"variant": "EEKRQVKQVAKEKLLEQSPNSKVQVRRVQKQGNTIRVELELRTNGKKENYMVEVERQGNTWTVKRITRT", "note": "[T51M]", "folding stability dG": 3.95}, {"variant": "EEKRQVKQVAKEKLLEQSPNSKVQVRRVQKQGNTIRVELELRTNGKKENYHVEVERQGNTWTVKRITRT", "note": "[T51H]", "folding stability dG": 3.24}, {"variant": "EEKRQVKQVAKEKLLEQSPNSKVQVRRVQKQGNTIRVELELRTNGKKENYTVEVERDGNTWTVKRITRT", "note": "[Q57D]", "folding stability dG": 4.07}, {"variant": "EEKRQVKQVAKEQLLEQSPNSKVQVRRVQKQGNTIRVELELRTNGKKENYTVEVERQGNTWTVKRITRT", "note": "[K13Q]", "folding stability dG": 3.24}, {"variant": "EEKRQVKQVAKEKLLEQSPNSKVQVRRVQKQGNTIRVELELRTNGHKENYTVEVERQGNTWTVKRITRT", "note": "[K46H]", "folding stability dG": 3.9}, {"variant": "EEKRQMKQVAKEKLLEQSPNSKVQVRRVQKQGNTIRVELELRTNGKKENYTVEVERQGNTWTVKRITRT", "note": "[V6M]", "folding stability dG": 3.03}, {"variant": "EEKRQYKQVAKEKLLEQSPNSKVQVRRVQKQGNTIRVELELRTNGKKENYTVEVERQGNTWTVKRITRT", "note": "[V6Y]", "folding stability dG": 3.13}, {"variant": "EEKRQVKQVAKEKLLEQSPNSKVQVRRVQKQGNTIRVELELRTDGKKENYTVEVERQGNTWTVKRITRT", "note": "[N44D]", "folding stability dG": 3.79}, {"variant": "EEKRQVKQVAKEKLLEQSPNSKVQVRRVQKQGNTIRVELELRTKGKKENYTVEVERQGNTWTVKRITRT", "note": "[N44K]", "folding stability dG": 3.77}, {"variant": "PEKRQVKQVAKEKLLEQSPNSKVQVRRVQKQGNTIRVELELRTNGKKENYTVEVERQGNTWTVKRITRT", "note": "[E1P]", "folding stability dG": 3.19}, {"variant": "HEKRQVKQVAKEKLLEQSPNSKVQVRRVQKQGNTIRVELELRTNGKKENYTVEVERQGNTWTVKRITRT", "note": "[E1H]", "folding stability dG": 3.61}, {"variant": "EEKRQVKQVAKEKLLEQSPNSKVQVRRVQKQGNTIRVCLELRTNGKKENYTVEVERQGNTWTVKRITRT", "note": "[E38C]", "folding stability dG": 3.66}, {"variant": "EEKRQVKQVAKEKLLEQSPNSKVQVRRVQKQGNTIRVELELRTNGKKENYTVEVERQGLTWTVKRITRT", "note": "[N59L]", "folding stability dG": 3.68}, {"variant": "EEKRQVKQVAKEKLLEQSPNSKVQVRRVQKQGNTIRVELELRTNGKKENYTVEVERQGWTWTVKRITRT", "note": "[N59W]", "folding stability dG": 3.5}, {"variant": "EEKRQVKQVAKEKLLEQSPNSKVQVRRVQKQGNTIRVELELWTNGKKENYTVEVERQGNTWTVKRITRT", "note": "[R42W]", "folding stability dG": 4.57}, {"variant": "EEKRQVKQVAKEKLLEQSPNSKVQVRRVQKNGNTIRVELELRTNGKKENYTVEVERQGNTWTVKRITRT", "note": "[Q31N]", "folding stability dG": 3.84}, {"variant": "EEKRQVKQVAKEKLLEMSPNSKVQVRRVQKQGNTIRVELELRTNGKKENYTVEVERQGNTWTVKRITRT", "note": "[Q17M]", "folding stability dG": 4.52}, {"variant": "EYKRQVKQVAKEKLLEQSPNSKVQVRRVQKQGNTIRVELELRTNGKKENYTVEVERQGNTWTVKRITRT", "note": "[E2Y]", "folding stability dG": 3.08}, {"variant": "EIKRQVKQVAKEKLLEQSPNSKVQVRRVQKQGNTIRVELELRTNGKKENYTVEVERQGNTWTVKRITRT", "note": "[E2I]", "folding stability dG": 3.93}]}]}
